Source: doi:10.1101/2020.05.20.106609 (bioRxiv, 2020)

What was measured:
[1] = target: T1, SARS-CoV-2 spike receptor binding domain (RBD) (SARS-CoV-2 Wuhan-Hu-1 (QHD43416), UniProt P0DTC2); assay: cell-based or functional assay
[2] = target: SARS-CoV-2 spike N terminal domain (NTD) (SARS-CoV-2 Wuhan-Hu-1 (QHD43416), UniProt P0DTC2); assay: ELISA
[3] = target: SARS-CoV-2 spike S1 subunit (SARS-CoV-2 Wuhan-Hu-1 (QHD43416), UniProt P0DTC2); assay: ELISA
[4] = target: T1, SARS-CoV-2 spike receptor binding …; assay: BLI

Binder	NT50, plaque reduction neutralization test (PRNT), SARS-CoV-2 on Vero E6 cells [1] [µg/mL]	binding result [2]	Kd [3] [nM]	Kd [4] [nM]
MD62 (scFv, V domains shown) VH: EVQLVQSGGGLIQPGGSLRLSCAASGVTVSSNYMTWVRQAPGKGLEWVSLIYSGGSTYYADSVKGRFTISRDNSKNTLYLQMNSLRAEDTAVYYCARDLQYYGMDVWGQGTMVTVSS VL: AIRMTQSPSSVSASVGDRVTITCRASQDIGSWLGWYQQKPGKAPKLLIYAASSLAGGVPSRFSGSGSGTDFTLTISSLQPEDFATYYCQQANSFPLTFGGGTKLEIK	1.6	no binding	–	–
MD47 (scFv, V domains shown) V domain 1: QMQLVQSGGGLVQPGGSLRLSCAASGFTFSSYAMSWVRQAPGKGLEWVSAISSGGSTYYADSVKGRFTISRDNSKNTLYLQMNSLRAEDTAVYYCAKDLVTAPSYEAFDIWGQGTMITVSS V domain 2: NFMLTQPPSVSVAPGKTARITCGGNNIGSKSVHWYQQKPGQAPVLVIYYDSDRPSGIPERFSGSNSGNTATLTISRVEAGDEADYYCQVWDSSSHHHVVFGGGTKGTVL	13	no binding	–	–
MD45 (scFv, V domains shown) VH: EVQLVQSGGGLVQPGGSLRLSCAASGFTVSSNYMTWVRQAPGKGLEWVSVIYSGGSTFYADSVKGRFTISRHNSKNTLYLQMNSLRAEDTAVYYCARDLSVRGGMDVWGQGTMVTVSS VL: EIVLTQSPGTLSLSPGERATLSCRASQSVNSSYLAWYQQKPGQAPRLLIYGASNRATGIPDRFSGSGSGTDFTLTISRLEPEDFAVYYCQQYGVSPEIIFGQGTRLEIK	2.1	no binding	12.7	–
MD67 (scFv, V domains shown) VH: EVQLVESGGGLVQPGGSLRLSCAASGFTVSSNYMTWVRQAPGKGLEWVSVIYSGGSTFYADSVKGRFTISRHNSKNTLYLQMNSLRAEDTAVYYCARDLSVRGGMDVWGQGTTVTVSS VL: not shown	1.9	no binding	–	0.4 to 5.8
MD63 (scFv, V domains shown) VH: QVTLKESGGGVVQPGRSLRLSCAASGFTFSSYAMHWVRQAPGKGLEHVSAISSDGGITYFADSVKGRFTISRDNSRNTLFLQMSSLRVEDTAVYYCVKDQDSNSWYDAFDIWGRGTMVTVSS VL: not shown	–	no binding	15.6	–
MD17 (scFv, V domains shown) VH: EVQLLESGGGLVQPGGSLRLSCSASGFTFSTYVMNWVRQAPGKGLEHVSGISSDGGITYYADSVKGRFTISRDNSKNTLYLQMSSLRVEDTAVYYCVKDQDSSSWYDAFDIWGQGTMVTVSS VL: DIVMTQSPSSLSASVGDRVTITCRASQSISNYLNWYQQKLGKAPKLLTYAASRLQSGVPSRFSASGSGTEFTLTISSLQPEDFATYYCQQSYTTPLTFGGGTKLEIK	43	no binding	–	–
MD29 (scFv, V domains shown) VH: QMQLVQSGGGLVQPGGSLRLSCSASGFTFSTYVMNWVRQAPGKGPEHVSGISSDGGITYYADSVKGRFTISRDNSKNTLYLQMSSLRVEDTAVYYCVKDQDSSSWYDAFDIWGQGTMVTVSS VL: NIRLTQSPSSLSASVGDRVTITCRATQSISSYLNWYQQKPGKAPNLLIYAASSLQSGVPSRFSGSGSGTDFTLTISSLQPEDFATYYCHQTYTSPYTFGQGTKLEIK	13	no binding	–	0.4 to 5.8
